Test results: patent US6043072A, “Nucleic acids encoding Taxus geranylgeranyl diphosphate synthase, and methods of use” (Washington State University Research Foundation, priority 1998, dated 2000)

B1: Tr^295: 5'-truncated T. canadensis GGPP synthase of SEQ ID NO:2 beginning at nucleotide 295 (F^99), lacking the transit peptide (protein)
chain: FDFNEYMKSKAVAVDAALDKAIPLEYPEKIHESMRYSLLAGGKRVRPALCIAACELVGGSQDLAMPTACAMEMIHTMSLIHDDLPCMDNDDFRRGKPTNHKVFGEDTAVLAGDALLSFAFEHIAVATSKTVPSDRTLRVISELGKTIGSQGLVGGQVVDITSEGDANVDLKTLEWIHIHKTAVLLECSVVSGGILGGATEDEIARIRRYARCVGLLFQVVDDILDVTKSSEELGKTAGKDLLTDKATYPKLMGLEKAKEFAAELATRAKEELSSFDQIKAAPLLGLADYIAFRQN
B2: full-length: full-length T. canadensis GGPP synthase preprotein (SEQ ID NO:2) encoded by SEQ ID NO:1 (protein)
chain: MAYTAMAAGTQSLQLRTVASYQECNSMRSCFKLTPFKSFHGVNFNVPSLGAANCEIMGHLKLGSLPYKQCSVSSKSTKTMAQLVDLAETEKAEGKDIEFDFNEYMKSKAVAVDAALDKAIPLEYPEKIHESMRYSLLAGGKRVRPALCIAACELVGGSQDLAMPTACAMEMIHTMSLIHDDLPCMDNDDFRRGKPTNHKVFGEDTAVLAGDALLSFAFEHIAVATSKTVPSDRTLRVISELGKTIGSQGLVGGQVVDITSEGDANVDLKTLEWIHIHKTAVLLECSVVSGGILGGATEDEIARIRRYARCVGLLFQVVDDILDVTKSSEELGKTAGKDLLTDKATYPKLMGLEKAKEFAAELATRAKEELSSFDQIKAAPLLGLADYIAFRQN

Key:
E. coli = test: Expression under a strong constitutive promoter in E. coli (vector pYPGE15); assay type: cell-based
Method: (§1) The toxicity of the constitutively expressed, recombinant GGPP synthase gene in yeast and in E. coli parallels the in vitro activity of the enzyme expressed in the truncation series. […] This toxicity is not observed when the corresponding transformed yeast are grown on glucose or glycerol (uninduced condition), but only when the gene is actively expressed by growth under inducing conditions with galactose as the carbon source. The overexpression of this gene to produce a functional GGPP synthase probably interferes with metabolism by depleting intracellular pools of FPP, via diversion to GGPP, and thus limiting sterol biosynthesis. […] The vector used in these E. coli transformation experiments was pYPGE15, the plasmid derived from λPG15.

yeast strain (INVSc1) = test: Growth/toxicity of constructs in yeast under galactose induction; assay type: cell-based, S. cerevisiae; conditions: for growth of INVSc1 transformants on SLI medium: 30° C., 3 d, galactose (induced); for toxicity of the expressed recombinant GGPP synthase gene to host cells: inducing conditions, galactose as carbon source
Method: To test the expression of GGPP synthase on galactose as carbon source, each construct was transformed into a yeast strain (INVSc1) that metabolizes this sugar efficiently.
as §1

[1] = Prenyltransferase assay of extracts of yeast expressing the GGPP synthase constructs, with product analysis by radio-TLC; assay type: biochemical, Taxus canadensis
Method: The standard assay for prenyltransferase activities was performed with 21 mg protein in a total volume of 100 ml of the extraction/assay buffer disclosed in Example 3. […] The reaction was quenched by the addition of 300 mil of methanol:conc. HCl (4:1, v/v), and the allylic diphosphate products were solvolyzed (50, 51) upon further incubation at 42° C. for 20 min. The resulting solvolysis products were extracted twice with 1 ml pentane, and were either analyzed by liquid scintillation counting (in toluene:ethanol (7:3, v/v) containing 0.4% Omnifluor (DuPont NEN); ^14 C counting efficiency=96.0%) or concentrated on ice under a gentle stream of Ar to […] for further analysis.
For radio-TLC analysis, samples were mixed with 10 mg each of geranylgeraniol (all trans), geranyllinalool (mixed geometric isomers), farnesol and geraniol and spotted on Whatman MKC 18F reversed phase plates that were developed with acetonitrile:acetone:water (15:4:1, v/v/v) and visualized with I2 vapor. Bands corresponding to the standards were scraped into scintillation vials for counting. For radio-GC analysis, the above pentane extract was diluted with 200 ml of an 8% ethereal solution of the internal standards before concentration on ice. Product identity was confirmed by radio-GC (Satterwhite, D. M. and Croteau, R. (1988) J. Chromatogr., 452:61-73) coincidence with the authentic standard on a 12 ft x 0.125 in. polydimethylsiloxane column (15% SE-30 on 80/100-mesh Chromasorb WHP; (Alltech, Inc., Nicholasville, Ky.), with He as carrier and temperature programming from 150° C. (1 min hold) to 240° C. (20 min hold) at 8° C./min.

[2] = tested on: ANY119, an S. cerevisiae mutant; test: Complementation assay in yeast bet2-1 mutant; assay type: cell-based; conditions: 37° C.; SGI (3 d) and N3 (5 d)
Method: The pYeDP60 constructs were transformed into the S. cerevisiae mutant ANY119 using the lithium acetate procedure (Treco, D. (1989) in Current Protocols in Molecular Biology (Ausubel, F. M., Brent, R., Kingston, R. E., Moore, D. D., Seidman, J. G., Smith, J. A. and White, T. J., Eds.), pp. 13.7.1-13.7.2, John Wiley and Sons, New York), and the transformed yeast were then plated on a synthetic medium containing glucose as the sole carbon source (but lacking uracil) and grown for 4 d at 25° C. Isolated colonies, corresponding to each construct, were then replica streaked onto SGI, N3 and SLI media and grown for 3, 5 or 7 d, respectively, at 25° C or 37° C.
SGI and SLI synthetic media contain, respectively, 20 g/liter glucose (G) or 20 g/liter galactose (L) in 1 g/liter bactocasamino acids (Difco), 6.7 g/liter yeast nitrogen base without amino acid (Difco), and 40 mg/liter DL-tryptophan.
The three pYeDP60/T. canadensis GGPP synthase constructs were introduced into and expressed in ANY119, an S. cerevisiae mutant that is defective for the β-subunit of type II geranylgeranyltransferase. […]

Row | Molecule | growth of E. coli expressing the clone (E. coli) | growth of INVSc1 transformants on SLI medium (yeast strain (INVSc1)) | toxicity of the expressed recombinant GGPP synthase gene to host cells (yeast strain (INVSc1)) | total radioactivity of solvolysis products coinciding with geranylgeraniol and geranyllinalool standards ([1]; reversed phase TLC, [4-^14 C]IPP plus FPP as substrates) [%] | prenyltransferase activity of enzyme preparation ([1]; yeast extracts, [4-^14 C]IPP and FPP) | growth at restrictive temperature (rescue of bet2-1 mutant) [2] | activity relative to the truncated form expressed from Tr^295 ([1]; compared on a protein basis, yeast extracts) [%]
1 | B1 | the cells will not grow | did not grow at all | extremely toxic | 97 | highly active | showed growth | 
2 | B2 | the cells will not grow | scanty growth | noticeable reduction in growth |  |  | showed growth | 12
